Test results published in publication PMC6345845, “Phosphatidylinositol 4-kinase IIIβ (PI4KB) forms highly flexible heterocomplexes that include ACBD3, 14-3-3, and Rab11 proteins” (Scientific Reports, 2019).

Columns and labels:
[1] = biological target: the molecule itself; experiment: AUC; sedimentation velocity, SEC buffer, 20 °C, 42 000 rpm; P-PI4KB alone (20 µM) and with Rab11; stoichiometries independent of Rab11 nucleotide state
[2] = biological target: T1, pseudo-wt PI4KB (human, UniProt Q9UBF8 1-816, internal deletion of a disordered loop (residues 423-522)); experiment: SAXS; ACBD3 and pseudo-wt PI4KB mixed 1:1, dialyzed against 20 mM Tris pH 8, 200 mM NaCl, 2 mM TCEP, 1% glycerol; 3.0 and 4.5 mg/ml; details: both partners purified
T1 construct: phosphatidylinositol 4-kinase IIIβ (PI4KB) with intact N-terminus, containing only the internal deletion (residues 423-522)
T1 sequence (Q9UBF8 other isoform, or with tags, fused parts or gaps with the stated changes): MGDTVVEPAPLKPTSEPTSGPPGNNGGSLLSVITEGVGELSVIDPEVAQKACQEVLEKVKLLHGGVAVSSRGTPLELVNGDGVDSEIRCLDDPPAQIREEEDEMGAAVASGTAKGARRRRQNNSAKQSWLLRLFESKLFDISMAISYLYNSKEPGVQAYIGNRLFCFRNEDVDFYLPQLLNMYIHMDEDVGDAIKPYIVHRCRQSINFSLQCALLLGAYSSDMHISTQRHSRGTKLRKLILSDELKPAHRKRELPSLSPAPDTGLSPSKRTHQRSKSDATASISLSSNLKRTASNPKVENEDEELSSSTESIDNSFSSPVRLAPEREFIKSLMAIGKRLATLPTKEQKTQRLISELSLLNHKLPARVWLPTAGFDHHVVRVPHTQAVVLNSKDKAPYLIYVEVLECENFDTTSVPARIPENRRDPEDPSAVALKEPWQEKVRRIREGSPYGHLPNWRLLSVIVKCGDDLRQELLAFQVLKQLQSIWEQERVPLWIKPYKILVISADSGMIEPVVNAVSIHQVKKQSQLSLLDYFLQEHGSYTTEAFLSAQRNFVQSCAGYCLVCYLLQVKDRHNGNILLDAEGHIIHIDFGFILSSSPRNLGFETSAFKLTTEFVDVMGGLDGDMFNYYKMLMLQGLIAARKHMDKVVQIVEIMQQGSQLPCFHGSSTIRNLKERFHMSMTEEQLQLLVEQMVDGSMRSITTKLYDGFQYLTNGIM

[3] = biological target: T2, pseudo-wt PI4KB labeled with Atto488 (human, UniProt Q9UBF8 1-816, internal deletion of a disordered loop (residues 423-522), Atto488 (maleimide labelling)); experiment: GUV recruitment (confocal microscopy); ACBD3 tethered to GUVs with DGS-NTA(Ni); Atto488-PI4KB and mCherry-Rab11 in solution, each approximately 50 nM; details: both partners purified
T2 construct: phosphatidylinositol 4-kinase IIIβ (PI4KB) with intact N-terminus, containing only the internal deletion (residues 423-522); also called Atto488 labeled PI4KB; wild type PI4KB
T2 sequence (Q9UBF8 other isoform, or with tags, fused parts or gaps with the stated changes): as above

B1: phosphorylated PI4KB (residues 128-799, internal deletion 423-522, T292R, phosphorylated at S294 by PKA) (enzyme, human, UniProt Q9UBF8 128-799, looked up)
chain: SWLLRLFESKLFDISMAISYLYNSKEPGVQAYIGNRLFCFRNEDVDFYLPQLLNMYIHMDEDVGDAIKPYIVHRCRQSINFSLQCALLLGAYSSDMHISTQRHSRGTKLRKLILSDELKPAHRKRELPSLSPAPDTGLSPSKRTHQRSKSDATASISLSSNLKRRASNPKVENEDEELSSSTESIDNSFSSPVRLAPEREFIKSLMAIGKRLATLPTKEQKTQRLISELSLLNHKLPARVWLPTAGFDHHVVRVPHTQAVVLNSKDKAPYLIYVEVLECENFDTTSVPARIPENRRDPEDPSAVALKEPWQEKVRRIREGSPYGHLPNWRLLSVIVKCGDDLRQELLAFQVLKQLQSIWEQERVPLWIKPYKILVISADSGMIEPVVNAVSIHQVKKQSQLSLLDYFLQEHGSYTTEAFLSAQRNFVQSCAGYCLVCYLLQVKDRHNGNILLDAEGHIIHIDFGFILSSSPRNLGFETSAFKLTTEFVDVMGGLDGDMFNYYKMLMLQGLIAARKHMDKVVQIVEIMQQGSQLPCFHGSSTIRNLKERFHMSMTEEQLQLLVEQMVDGSMRS
modifications: phosphoserine at 294 (in vitro by protein kinase A)
notes: phosphatidylinositol 4-kinase IIIβ (PI4KB), residues 128-799 with internal deletion of a disordered loop (residues 423-522) and T292R; also called P-PI4KB; phosphatidylinositol 4-kinase IIIβ; source: phosphorylated in vitro by PKA; Mono Q, SEC
Question: With B1 as the binder, how does the “stoichiometry N” value [1] read?
Answer: 2

B2: ACBD3 (Acyl-CoA-binding domain-containing protein), tag cleaved (natural protein, UniProt Q9H3P7 1-528, looked up)
chain: MAAVLNAERLEVSVDGLTLSPDPEERPGAEGAPLLPPPLPPPSPPGSGRGPGASGEQPEPGEAAAGGAAEEARRLEQRWGFGLEELYGLALRFFKEKDGKAFHPTYEEKLKLVALHKQVLMGPYNPDTCPEVGFFDVLGNDRRREWAALGNMSKEDAMVEFVKLLNRCCHLFSTYVASHKIEKEEQEKKRKEEEERRRREEEERERLQKEEEKRRREEEERLRREEEERRRIEEERLRLEQQKQQIMAALNSQTAVQFQQYAAQQYPGNYEQQQILIRQLQEQHYQQYMQQLYQVQLAQQQAALQKQQEVVVAGSSLPTSSKVNATVPSNMMSVNGQAKTHTDSSEKELEPEAAEEALENGPKESLPVIAAPSMWTRPQIKDFKEKIQQDADSVITVGRGEVVTVRVPTHEEGSYLFWEFATDNYDIGFGVYFEWTDSPNTAVSVHVSESSDDDEEEEENIGCEEKAKKNANKPLLDEIVPVYRRDCHEEVYAGSHQYPGRGVYLLKFDNSYSLWRSKSVYYRVYYTR
notes: ACBD3 with ACBD, CAR, Q and GOLD domains; no limits of the construct are printed; not shown: His6-GB1, N-terminal, cleaved
Question: Does B2 bind [2]?
Answer: binds

B3: ACBD3 with N-terminal 6xHis-GB1 tag (for GUV reconstitution) (natural protein, UniProt Q9H3P7 1-528, looked up)
chain: MAAVLNAERLEVSVDGLTLSPDPEERPGAEGAPLLPPPLPPPSPPGSGRGPGASGEQPEPGEAAAGGAAEEARRLEQRWGFGLEELYGLALRFFKEKDGKAFHPTYEEKLKLVALHKQVLMGPYNPDTCPEVGFFDVLGNDRRREWAALGNMSKEDAMVEFVKLLNRCCHLFSTYVASHKIEKEEQEKKRKEEEERRRREEEERERLQKEEEKRRREEEERLRREEEERRRIEEERLRLEQQKQQIMAALNSQTAVQFQQYAAQQYPGNYEQQQILIRQLQEQHYQQYMQQLYQVQLAQQQAALQKQQEVVVAGSSLPTSSKVNATVPSNMMSVNGQAKTHTDSSEKELEPEAAEEALENGPKESLPVIAAPSMWTRPQIKDFKEKIQQDADSVITVGRGEVVTVRVPTHEEGSYLFWEFATDNYDIGFGVYFEWTDSPNTAVSVHVSESSDDDEEEEENIGCEEKAKKNANKPLLDEIVPVYRRDCHEEVYAGSHQYPGRGVYLLKFDNSYSLWRSKSVYYRVYYTR
notes: ACBD3 with ACBD, CAR, Q and GOLD domains; Tethered to GUVs that contain DGS-NTA(Ni); also called membrane tethered ACBD3; not shown: His6-GB1, N-terminal, kept
Question: Does B3 bind [3]?
Answer: binds
